In PMC8967061:
pKd: −log10 of the molar value.

Molecular target: Factor H domains 19-20 (human) (UniProt P08603)
Experiment: MST; FH19-20 labelled with RED-tris-NTA dye (300 nM stock, mixed 1:1 with ligand), FhbA proteins titrated, PBS/0.025% Tween-20, 22 C

Chain of Factor H domains 19-20 (human) (P08603 1104-1231): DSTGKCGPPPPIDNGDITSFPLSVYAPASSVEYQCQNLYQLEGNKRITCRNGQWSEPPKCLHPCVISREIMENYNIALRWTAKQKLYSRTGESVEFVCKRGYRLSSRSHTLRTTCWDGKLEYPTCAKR

FhbA homologue from Borrelia duttonii, wild type (natural protein)
pKd: 5.97

BhFhbA Phe154Ala (from UniProt W5SB08 44-202) (domain or fragment)
pKd: 5.22
